Laboratory results taken from patent US20140087995A1 (published 2014).
Numbered stars: 1 amine (or outer) side, 2 acyl side, 3 side chain; on linkers, the order of the positions; unused ones are H or OH. Bridge positions count the residues as written; N and C are the ends. Side chains are listed from the residue outwards. Ends that are not written are not given here. * marks the point of attachment. C20 diacid = O=C(O)CCCCCCCCCCCCCCCCCCC(=O)*; γGlu = O=C(O)[C@H](CCC(=O)[*:2])N[*:1]

T1: rat calcitonin receptor (rat, UniProt P32214 25-516)
T1 construct: whole, on cells; Used as membranes prepared from the transfected cells; also called rCTR; rat calcitonin (a) receptor
T1 sequence (looked up): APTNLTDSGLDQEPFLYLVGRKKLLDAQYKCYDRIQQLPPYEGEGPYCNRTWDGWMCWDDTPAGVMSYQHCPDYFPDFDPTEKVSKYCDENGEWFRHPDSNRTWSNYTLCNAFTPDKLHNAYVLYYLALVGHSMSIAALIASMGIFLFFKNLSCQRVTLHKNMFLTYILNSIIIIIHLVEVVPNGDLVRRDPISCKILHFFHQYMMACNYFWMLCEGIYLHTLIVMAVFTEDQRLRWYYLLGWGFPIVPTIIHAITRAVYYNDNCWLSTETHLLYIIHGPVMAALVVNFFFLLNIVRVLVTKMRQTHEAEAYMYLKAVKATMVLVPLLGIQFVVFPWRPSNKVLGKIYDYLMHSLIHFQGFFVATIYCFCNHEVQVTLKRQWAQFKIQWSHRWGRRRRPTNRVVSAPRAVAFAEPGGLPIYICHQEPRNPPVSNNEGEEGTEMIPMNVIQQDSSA

T2: human calcitonin receptor (human, UniProt P30988 25-474)
T2 construct: whole, on cells; Used as membranes prepared from the transfected cells (Assay VII); also called hCTR; hCT
T2 sequence (looked up): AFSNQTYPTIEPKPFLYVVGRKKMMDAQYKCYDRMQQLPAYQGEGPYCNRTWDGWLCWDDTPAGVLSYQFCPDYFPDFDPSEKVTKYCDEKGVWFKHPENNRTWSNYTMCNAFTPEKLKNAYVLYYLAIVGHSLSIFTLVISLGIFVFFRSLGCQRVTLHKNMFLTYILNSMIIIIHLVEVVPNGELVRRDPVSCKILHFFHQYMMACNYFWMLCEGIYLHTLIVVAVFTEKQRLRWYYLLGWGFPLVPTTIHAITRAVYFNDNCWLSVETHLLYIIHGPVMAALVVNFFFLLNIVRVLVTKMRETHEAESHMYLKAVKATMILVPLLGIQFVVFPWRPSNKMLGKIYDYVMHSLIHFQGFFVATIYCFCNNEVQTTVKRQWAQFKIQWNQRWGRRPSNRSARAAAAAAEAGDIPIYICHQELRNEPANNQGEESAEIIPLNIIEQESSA

T3: rat amylin receptor (rat calcitonin receptor + rat RAMP 3) (rat, UniProt P32214 25-516; Q9JJ73 23-147)
T3 construct: whole, on cells; Used as membranes prepared from the transfected cells; also called rAmylin-R; rat amylin 3(a) receptor
T3 sequence (looked up) 1: T1 sequence (looked up)
T3 sequence (looked up) 2: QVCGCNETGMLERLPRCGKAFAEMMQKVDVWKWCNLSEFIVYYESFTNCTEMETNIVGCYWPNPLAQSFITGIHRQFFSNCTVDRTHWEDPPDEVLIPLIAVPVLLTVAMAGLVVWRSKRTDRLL

B1: N^ε1-[(4S)-4-carboxy-4-[[(4S)-4-carboxy-4-(19-carboxynonadecanoylamino)butanoyl]amino]butanoyl]-[Asp14,Arg17,Pro21,Pro26,Asp35]-h-amylin (peptide)
peptide: K([γGlu-γGlu-C20 diacid])CNTATCATQRLADFLRHSSPNFGAPLSSTNVGSDTY-NH2
modifications: disulfide 2-7; N-terminus assumed
SMILES: CC(C)C[C@H](NC(=O)[C@H](CCCNC(=N)N)NC(=O)[C@H](CCC(N)=O)NC(=O)[C@@H](NC(=O)[C@H](C)NC(=O)[C@@H]1CSSC[C@H](NC(=O)[C@@H](N)CCCCNC(=O)CC[C@H](NC(=O)CC[C@H](NC(=O)CCCCCCCCCCCCCCCCCCC(=O)O)C(=O)O)C(=O)O)C(=O)N[C@@H](CC(N)=O)C(=O)N[C@@H]([C@@H](C)O)C(=O)N[C@@H](C)C(=O)N[C@@H]([C@@H](C)O)C(=O)N1)[C@@H](C)O)C(=O)N[C@@H](C)C(=O)N[C@@H](CC(=O)O)C(=O)N[C@@H](Cc1ccccc1)C(=O)N[C@@H](CC(C)C)C(=O)N[C@@H](CCCNC(=N)N)C(=O)N[C@@H](Cc1c[nH]cn1)C(=O)N[C@@H](CO)C(=O)N[C@@H](CO)C(=O)N1CCC[C@H]1C(=O)N[C@@H](CC(N)=O)C(=O)N[C@@H](Cc1ccccc1)C(=O)NCC(=O)N[C@@H](C)C(=O)N1CCC[C@H]1C(=O)N[C@@H](CC(C)C)C(=O)N[C@@H](CO)C(=O)N[C@@H](CO)C(=O)N[C@H](C(=O)N[C@@H](CC(N)=O)C(=O)N[C@H](C(=O)NCC(=O)N[C@@H](CO)C(=O)N[C@@H](CC(=O)O)C(=O)N[C@H](C(=O)N[C@@H](Cc1ccc(O)cc1)C(N)=O)[C@@H](C)O)C(C)C)[C@@H](C)O
notes: Derivative of human amylin; also called compound 1
B2: N^ε1-[(4S)-4-carboxy-4-[[(4S)-4-carboxy-4-(19-carboxynonadecanoylamino)butanoyl]amino]butanoyl]-[Asp14,Arg17,Pro21,Pro27,Asp35]-h-amylin (peptide)
peptide: K([γGlu-γGlu-C20 diacid])CNTATCATQRLADFLRHSSPNFGAIPSSTNVGSDTY-NH2
modifications: disulfide 2-7; N-terminus assumed
SMILES: CC[C@H](C)[C@H](NC(=O)[C@H](C)NC(=O)CNC(=O)[C@H](Cc1ccccc1)NC(=O)[C@H](CC(N)=O)NC(=O)[C@@H]1CCCN1C(=O)[C@H](CO)NC(=O)[C@H](CO)NC(=O)[C@H](Cc1c[nH]cn1)NC(=O)[C@H](CCCNC(=N)N)NC(=O)[C@H](CC(C)C)NC(=O)[C@H](Cc1ccccc1)NC(=O)[C@H](CC(=O)O)NC(=O)[C@H](C)NC(=O)[C@H](CC(C)C)NC(=O)[C@H](CCCNC(=N)N)NC(=O)[C@H](CCC(N)=O)NC(=O)[C@@H](NC(=O)[C@H](C)NC(=O)[C@@H]1CSSC[C@H](NC(=O)[C@@H](N)CCCCNC(=O)CC[C@H](NC(=O)CC[C@H](NC(=O)CCCCCCCCCCCCCCCCCCC(=O)O)C(=O)O)C(=O)O)C(=O)N[C@@H](CC(N)=O)C(=O)N[C@@H]([C@@H](C)O)C(=O)N[C@@H](C)C(=O)N[C@@H]([C@@H](C)O)C(=O)N1)[C@@H](C)O)C(=O)N1CCC[C@H]1C(=O)N[C@@H](CO)C(=O)N[C@@H](CO)C(=O)N[C@H](C(=O)N[C@@H](CC(N)=O)C(=O)N[C@H](C(=O)NCC(=O)N[C@@H](CO)C(=O)N[C@@H](CC(=O)O)C(=O)N[C@H](C(=O)N[C@@H](Cc1ccc(O)cc1)C(N)=O)[C@@H](C)O)C(C)C)[C@@H](C)O
notes: Derivative of human amylin; also called compound 2
B3: N^ε1-[(4S)--4-carboxy-4-(19-carboxynonadecanoylamino)butanoyl]-[Glu14,Arg17,Pro21,Pro27,Pro37]-h-amylin (peptide)
peptide: K([γGlu-C20 diacid])CNTATCATQRLAEFLRHSSPNFGAIPSSTNVGSNTP-NH2
modifications: disulfide 2-7; N-terminus assumed
SMILES: CC[C@H](C)[C@H](NC(=O)[C@H](C)NC(=O)CNC(=O)[C@H](Cc1ccccc1)NC(=O)[C@H](CC(N)=O)NC(=O)[C@@H]1CCCN1C(=O)[C@H](CO)NC(=O)[C@H](CO)NC(=O)[C@H](Cc1c[nH]cn1)NC(=O)[C@H](CCCNC(=N)N)NC(=O)[C@H](CC(C)C)NC(=O)[C@H](Cc1ccccc1)NC(=O)[C@H](CCC(=O)O)NC(=O)[C@H](C)NC(=O)[C@H](CC(C)C)NC(=O)[C@H](CCCNC(=N)N)NC(=O)[C@H](CCC(N)=O)NC(=O)[C@@H](NC(=O)[C@H](C)NC(=O)[C@@H]1CSSC[C@H](NC(=O)[C@@H](N)CCCCNC(=O)CC[C@H](NC(=O)CCCCCCCCCCCCCCCCCCC(=O)O)C(=O)O)C(=O)N[C@@H](CC(N)=O)C(=O)N[C@@H]([C@@H](C)O)C(=O)N[C@@H](C)C(=O)N[C@@H]([C@@H](C)O)C(=O)N1)[C@@H](C)O)C(=O)N1CCC[C@H]1C(=O)N[C@@H](CO)C(=O)N[C@@H](CO)C(=O)N[C@H](C(=O)N[C@@H](CC(N)=O)C(=O)N[C@H](C(=O)NCC(=O)N[C@@H](CO)C(=O)N[C@@H](CC(N)=O)C(=O)N[C@H](C(=O)N1CCC[C@H]1C(N)=O)[C@@H](C)O)C(C)C)[C@@H](C)O
notes: Derivative of human amylin; also called compound 12
B4: N^ε1-[(4S)-4-carboxy-4-[[(4S)-4-carboxy-4-(19-carboxynonadecanoylamino)butanoyl]amino]butanoyl]-[Asp14,Arg17,Pro22,Pro26,Asp35]-h-amylin (peptide)
peptide: K([γGlu-γGlu-C20 diacid])CNTATCATQRLADFLRHSSNPFGAPLSSTNVGSDTY-NH2
modifications: disulfide 2-7; N-terminus assumed
SMILES: CC(C)C[C@H](NC(=O)[C@H](CCCNC(=N)N)NC(=O)[C@H](CCC(N)=O)NC(=O)[C@@H](NC(=O)[C@H](C)NC(=O)[C@@H]1CSSC[C@H](NC(=O)[C@@H](N)CCCCNC(=O)CC[C@H](NC(=O)CC[C@H](NC(=O)CCCCCCCCCCCCCCCCCCC(=O)O)C(=O)O)C(=O)O)C(=O)N[C@@H](CC(N)=O)C(=O)N[C@@H]([C@@H](C)O)C(=O)N[C@@H](C)C(=O)N[C@@H]([C@@H](C)O)C(=O)N1)[C@@H](C)O)C(=O)N[C@@H](C)C(=O)N[C@@H](CC(=O)O)C(=O)N[C@@H](Cc1ccccc1)C(=O)N[C@@H](CC(C)C)C(=O)N[C@@H](CCCNC(=N)N)C(=O)N[C@@H](Cc1c[nH]cn1)C(=O)N[C@@H](CO)C(=O)N[C@@H](CO)C(=O)N[C@@H](CC(N)=O)C(=O)N1CCC[C@H]1C(=O)N[C@@H](Cc1ccccc1)C(=O)NCC(=O)N[C@@H](C)C(=O)N1CCC[C@H]1C(=O)N[C@@H](CC(C)C)C(=O)N[C@@H](CO)C(=O)N[C@@H](CO)C(=O)N[C@H](C(=O)N[C@@H](CC(N)=O)C(=O)N[C@H](C(=O)NCC(=O)N[C@@H](CO)C(=O)N[C@@H](CC(=O)O)C(=O)N[C@H](C(=O)N[C@@H](Cc1ccc(O)cc1)C(N)=O)[C@@H](C)O)C(C)C)[C@@H](C)O
notes: Derivative of human amylin; also called compound 3

Molecular target: T1, rat calcitonin receptor
Assay: ratio IC50 rat calcitonin receptor / IC50 rat amylin receptor (Assays VIII and VI)

Ratio rCT/rAmylin binding | Binder
104 | B1
366 | B2
5 | B3
16.7 | B4

Molecular target: T2, human calcitonin receptor
Assay: ratio IC50 human calcitonin receptor / IC50 human amylin receptor (Assays VII and V)
Method in brief: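 Membranes (35 ng/μL final) + SPA beads, 50 mM Hepes pH 7.4 buffer with 1 mM CaCl2, 5 mM MgCl₂, 0.1% OA, 0.02% Tween20; 120 min, 25° C, shaking; centrifuged, counted; IC₅₀ by one-site binding competition.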

Ratio hCT/hAmylin binding | Binder
27.6 | B1
47.5 | B2
2.5 | B3
17.3 | B4

Molecular target: T1, rat calcitonin receptor
Assay: SPA competition with 125I-calcitonin, membranes of BHK cells with rat calcitonin receptor (Assay VIII)

IC50 | Binder
135 nM | B1
108 nM | B2
2.71 nM | B3
16.7 nM | B4

Molecular target: T3, rat amylin receptor (rat calcitonin …)
Assay: SPA competition with 125I-rat amylin, membranes of BHK cells with rat calcitonin receptor + rat RAMP3 (Assay VI)

IC50 | Binder
1.3 nM | B1
0.295 nM | B2
0.544 nM | B3
1 nM | B4
